According to patent US20230173068A1 (BIO THERA SOLUTIONS, published 2023):

Experiments:
[1] = biological target: T1, FcRn-biotin (ACRO Biosystems, Cat #FCM-H82W4) (UniProt P55899 24-297; P61769 21-119, biotin (site not stated)); experiment: BLI (Octet QKe), FcRn-biotin on SA biosensor, antibody as analyte
T1 construct: Bought biotinylated protein, immobilised on a streptavidin (SA) biosensor; the natural receptor is a heterodimer of FCGRT and B2M
Protocol: The cycle of regeneration and neutralization was performed 3 times.

[2] = biological target: T2, FcγRIIIa (F158)-biotin (ACRO Biosystems, Cat #CDA-H82E8) (UniProt P08637 17-208, biotin (site not stated)); experiment: BLI (Octet QKe), FcγRIIIa (F158)-biotin on SA biosensor, antibody as analyte
T2 construct: Bought biotinylated protein, immobilised on an SA biosensor
T2 sequence (P08637 17-208 limits assumed): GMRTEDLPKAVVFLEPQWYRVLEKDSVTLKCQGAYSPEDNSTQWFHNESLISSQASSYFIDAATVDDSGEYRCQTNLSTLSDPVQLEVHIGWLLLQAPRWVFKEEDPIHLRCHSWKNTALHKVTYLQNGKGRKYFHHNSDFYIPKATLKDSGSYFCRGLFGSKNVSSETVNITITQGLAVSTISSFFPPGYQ
Protocol: Specific experimental method for binding to FcγRIIIa (F158) were as follows. FcγRIIIa (F158)-biotin (ACRO Biosystems, Cat #CDA-H82E8) was diluted to 1 μg/mL. An SA Biosensor (Fertebio, Cat #18-5019) was immobilize in FcγRIIIa (F158)-biotin dilution to a signal of approximately 0.6 nm.
The cycle of regeneration and neutralization was performed 3 times. The data was processed and analyzed using Data Analysis 8.2, and the sample data was fitted after sample blank (PBS) signal subtraction to obtain an affinity constant (KD).

[3] = biological target: T3, FcγRIIIa (V158)-biotin (ACRO Biosystems, Cat #CDA-H82E9) (UniProt P08637 17-208, biotin (site not stated)); experiment: BLI (Octet QKe), FcγRIIIa (V158)-biotin on SA biosensor, antibody as analyte
T3 construct: Bought biotinylated protein, immobilised on an SA biosensor
T3 sequence (P08637 17-208 F176V): as the sequence (P08637 17-208 limits assumed) above, with F160V counted along it
Protocol: Specific experimental method for binding to FcγRIIIa (V158) were as follows. FcγRIIIa (V158)-biotin (ACRO Biosystems, Cat #CDA-H82E9) was diluted to 1 μg/mL. An SA Biosensor (Fertebio, Cat #18-5019) was immobilize in FcγRIIIa (V158)-biotin dilution to a signal of approximately 0.6 nm. […] The cycle of regeneration and neutralization was performed 3 times. The data was processed and analyzed using Data Analysis 8.2, and the sample data was fitted after sample blank (PBS) signal subtraction to obtain an affinity constant (KD).

Kd [1]: 6.09 to 8.67 nM
Kd [2]: 93 to 111 nM
Kd [3]: 20.1 to 42.2 nM
B1: Simponi (golimumab), commercially available (antibody, human IgG1, kappa)
heavy: not shown
light: not shown
notes: Bought product (Janssen Biologics B.V.); It differs from Antibody A by a higher NGNA glycosylation level; also called commercially available anti-TNF-α antibody; copies: 2 + 2
